How the values were obtained:
Experiment in all cases: pull-down
[1] = target: His-ImuB-L378A (M. smegmatis) (M. smegmatis)
[2] = target: His-ImuB-L378A+V383A (M. smegmatis) (M. smegmatis)
[3] = target: His-ImuB-V383A (M. smegmatis) (M. smegmatis)

Substance: Strep-VFP-tagged ImuA’ (M. smegmatis) (natural protein)
- fold less pulled down than by His-ImuB [1]: 1.5 fold
- fold less pulled down than by His-ImuB [2]: 3 fold
- fold less pulled down than by His-ImuB [3]: 1.5 fold

Reference: article doi:10.1101/2023.03.28.534377
